In PMC8308607, “Antistaphylococcal Activity of the FtsZ Inhibitor C109” (Pathogens, 2021):

Molecular target: the molecule itself
Assay: co-sedimentation; polymerization (sedimentation) assay: 12 μM SaFtsZ, 2 mM GTP, 50 mM MES pH 6.5, 5 mM Mg(CH3COO)2, 100 mM CH3CO2K, 10 min at 30 °C, ultracentrifuged at 350,000 x g for 10 min at 25 °C, pellet and supernatant on SDS-PAGE; with or without 50 μM C109

B1: wild-type FtsZ of S. aureus (natural protein, Staphylococcus aureus ATCC 25923, UniProt P0A031 1-390, looked up)
chain: MLEFEQGFNHLATLKVIGVGGGGNNAVNRMIDHGMNNVEFIAINTDGQALNLSKAESKIQIGEKLTRGLGAGANPEIGKKAAEESREQIEDAIQGADMVFVTSGMGGGTGTGAAPVVAKIAKEMGALTVGVVTRPFSFEGRKRQTQAAAGVEAMKAAVDTLIVIPNDRLLDIVDKSTPMMEAFKEADNVLRQGVQGISDLIAVSGEVNLDFADVKTIMSNQGSALMGIGVSSGENRAVEAAKKAISSPLLETSIVGAQGVLMNITGGESLSLFEAQEAADIVQDAADEDVNMIFGTVINPELQDEIVVTVIATGFDDKPTSHGRKSGSTGFGTSVNTSSNATSKDESFTSNSSNAQATDSVSERTHTTKEDDIPSFIRNREERRSRRTRR
notes: FtsZ, cell division protein, Staphylococcus aureus ATCC 25923; full-length ftsZ gene (1173 bp) amplified from genomic DNA; Cloned into pETSUMO by In-Fusion; also called SaFtsZ; full-length S. aureus FtsZ; source: E. coli BL21(DE3), purified (HisTrap HP nickel column, SUMO protease, Superdex-75 SEC)
B1: binds.
